# Measurements reported in patent US20250074994A1 (Molecular Partners, published 2025).
# Substitutions are numbered along the chain they refer to.
# T1: biotinylated recombinant human CD70 (extracellular domain, Fc tag) (human, UniProt P32970 52-193, chemically biotinylated using 5-fold excess of Biotin)
# T1 construct: Bought from ACROBiosystems; also called bio.hCD70; Bio.CD70; not shown: C-terminal Fc Tag of the bought protein (ACROBiosystems)
# T1 sequence: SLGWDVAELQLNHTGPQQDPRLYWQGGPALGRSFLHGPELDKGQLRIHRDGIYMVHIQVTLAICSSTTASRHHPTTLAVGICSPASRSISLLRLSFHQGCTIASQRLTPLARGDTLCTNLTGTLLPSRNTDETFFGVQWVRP
# T2: human CD70 expressed on Molm-13 tumor cells (human, UniProt P32970 1-193)
# T2 sequence (looked up): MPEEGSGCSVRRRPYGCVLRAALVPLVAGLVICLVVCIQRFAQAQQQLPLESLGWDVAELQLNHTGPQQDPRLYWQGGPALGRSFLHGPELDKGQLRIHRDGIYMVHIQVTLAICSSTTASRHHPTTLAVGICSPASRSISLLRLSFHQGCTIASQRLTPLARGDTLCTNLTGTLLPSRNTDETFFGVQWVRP
# B1: DARPin® protein #1 (designed binder)
# chain: MRGSHHHHHHGSDLGYKLLQAAYDGQDDEVRILLAAGADVNAKDSRGQTPLHYAASIGHLEIVEVLLKAGADVNAKDDHGWTPLHLAAWSGHLEIVEVLLKAGADVNAQDQEGTTPADLAAVQSHEDIAEVLQKAA
# B2: DARPin® protein #27 (designed binder)
# chain: MRGSHHHHHHGSDLGKKLLQAARAGQLDEVRELLKAGADVNAKDQQGLTPLHIAANLGHLEIVEVLLKAGADVNAKDLFGLTPLHLAAFEGHLEIVEVLLKAGADVNAKDQHGATPLHLAAWVGHLEIVEVLLKAGADVNAQDKSGKTPADLAARAGHQDIAEVLQKAAGSPTPTPTTPTPTPTTPTPTPTGSDLGQKLLEAAWAGQDDEVRELLKAGADVNAKNSRGWTPLHTAAQTGHLEIFEVLLKAGADVNAKNDKRVTPLHLAAALGHLEIVEVLLKAGADVNARDSWGTTPADLAAKYGHQDIAEVLQKAA
# B3: DARPin® protein #26 (designed binder)
# chain: MRGSHHHHHHGSDLGIKLLTAAYDGQLDEVRILLKAGADVNAKDLRGQTPLHYAAGLGHLEIVEVLLKAGADVNAKDLHGWTPLHLAAWSGHLEIVEVLLKAGADVNAQDVEGVTPADLAAVQGHQDIAEVLQKAAGSPTPTPTTPTPTPTTPTPTPTGSDLGQKLLEAAWAGQDDEVRELLKAGADVNAKNSRGWTPLHTAAQTGHLEIFEVLLKAGADVNAKNDKRVTPLHLAAALGHLEIVEVLLKAGADVNARDSWGTTPADLAAKYGHQDIAEVLQKAA
# B4: DARPin® protein #9 (designed binder)
# chain: MRGSHHHHHHGSDLGKKLLQAARAGQLDEVRELLKAGADVNAKDQAGLTPLHIAAATGHLEIVEVLLKAGADVNAKDFSGLTPLHLAAFEGHLEIVEVLLKAGADVNAKDQHGQTPLHLAAWTGHLEIVEVLLKAGADVNAQDKSGKTPADLAARAGHQDIAEVLQKAA
# notes: Parent of DARPin protein #25
# B5: DARPin® protein #25 (designed binder)
# chain: B4 chain with A46Q, A56N, T57L, F78L, S79F, Q114A, T123V
# notes: expressed as monovalent designed ankyrin repeat protein with N-terminal His-tag
# B6: DARPin® protein #2 (designed binder)
# chain: B1 chain with D27L, A35K, S124G, E126Q
# notes: Parent of DARPin protein #24
# B7: DARPin® protein #24 (designed binder)
# chain: MRGSHHHHHHGSDLGIKLLTAAYDGQLDEVRILLKAGADVNAKDLRGQTPLHYAAGLGHLEIVEVLLKAGADVNAKDLHGWTPLHLAAWSGHLEIVEVLLKAGADVNAQDVEGVTPADLAAVQGHQDIAEVLQKAA
# notes: as for B5
# B8: DARPin® protein #8 (designed binder)
# chain: MRGSHHHHHHGSDLGHKLLFAAVRGQDDEVRILLAAGADVNAKDTRGVTPLHLAASWGHLEIVEVLLKAGADVNAKDELGNTPLHLAATDGHLEIVEVLLKAGADVNAQDWVGKTPADLAAWWGHEDIAEVLQKAA
# B9: DARPin® protein #7 (designed binder)
# chain: MRGSHHHHHHGSDLGAKLLNAATVGQDDEVRILLAAGADVNAKDWSGQTPLHHAAYTGHLEIVEVLLKAGADVNAKDSWGWTPLHLAAYTGHLEIVEVLLKAGADVNAQDKEGSTPADLAAFHGHEDIAEVLQKAA
# B10: DARPin® protein #6 (designed binder)
# chain: MRGSHHHHHHGSDLGKKLLEAARAGQDDEVRILLAAGTDVNAKDARGSTPLHVAAIHGHLEIVEVLLKAGADVNAKDTWGWTPLHLAAYAGHLEIVEVLLKAGADVNAQDEEGQTPADLAAFHGHEDIAEVLQKAA
# B11: DARPin® protein #5 (designed binder)
# chain: MRGSHHHHHHGSDLGFKLLQAALRGQLDEVRILLKAGADVNAKDQLGTTPLHLAAHYGHLEIVEVLLKAGADVNAKDVWGDTPLHLAAQHGHLEIVEVLLKAGADVNAQDRAGYTPADLAAQEGHEDIAEVLQKAA
# B12: DARPin® protein #10 (designed binder)
# chain: MRGSHHHHHHGSDLGFKLLNAAVQGQDDEVRILLAAGADVNAKDLRGTTPLHLAAQFGHLEIVEVLLKAGADVNAKDVWGATPLHLAAEHGHLEIVEVLLKAGADVNAQDNAGKTPADLAAQDGHEDIAEVLQKAA
# B13: DARPin® protein #12 (designed binder)
# chain: MRGSHHHHHHGSDLGKKLLQAARAGQLDEVRELLKAGADVNAKDQTGYTPLHLAARHGHLEIVEVLLKAGADVNAKDEYGWTPLHIAAFIGPLEIVEVLLKAGADVNAKDEQGATPLHLAAWQGHLEIVEVLLKAGADVNAQDKSGKTPADLAARAGHQDIAEVLQKAA
# B14: DARPin® protein #3 (designed binder)
# chain: MRGSHHHHHHGSDLGQKLLHAAQVGQDDEVRILLAAGADVNAKDTRGITPLHDTAFYGHLEIVEVLLKAGADVNAKDVTGWTPLHLAAYTGHLEIVEVLLKAGADVNAQDNEGITPADLAAFHGHEDIAEVLQKAA
# B15: DARPin® protein #11 (designed binder)
# chain: MRGSHHHHHHGSDLGIKLLYAAYFGQDDEVRILLAAGADVNAKDWLGKTPLHLAATEGHLEIVEVLLKAGADVNAKDEWGETPLHKAAQEGHLEIVEVLLKAGADVNAQDSAGYTPADLAAQVGHEDIAEVLQKAA
# Target: T1, biotinylated recombinant human CD70 …
# Test: crude extract HTRF
row,Binder,binding result
1,B1,binds

# Target: T2, human CD70 expressed on Molm-13 tumor …
# Test: cell-based or functional assay
row,Binder,"EC50 of in vitro T-cell activation and tumor cell killing (Molm-13-N1 target cells), improvement over the parental binding protein"
1,B2,~31 fold
2,B3,~7 fold

# Target: T2, human CD70 expressed on Molm-13 tumor …
# Test: flow cytometry (MFI) on CD70-expressing Molm-13 N1 tumor cells
# Description: Binding of binding proteins of the invention to CD70 expressed on the surface of cells was analyzed by fluorescence activated cell sorting (FACS) flow cytometry. For this purpose, CD70-expressing tumor cells (Molm-13 N1) were seeded at 100,000 cells per well in a 96 well plate. DARPin® protein #2, DARPin® protein #9, DARPin® protein #24 and DARPin® protein #25 were titrated down in 1:5 dilution ratio starting at 2000 nM. Tumor cells were resuspended with diluted DARPin proteins and incubated for 60 minutes at 4° C., The assay was performed in PBS including 2% fetal bovine serum without human serum albumin (HSA). After washing twice with Phosphate Buffer saline (PBS), DARPin® protein specific tumor cell binding was detected by adding unlabeled primary anti-rabbit DARPin® antibody (anti-rabbit 1-1-1 antibody, CePower) at 2 μg/ml. An incubation step of at least 30 minutes at 4° C. followed. Afterwards, cells were washed with PBS and a secondary goat anti-rabbit antibody labelled with Alexa Fluor 488 antibody (ThermoFisher) at 2 μg/ml was added. The same incubation conditions applied. Finally, the cells were washed twice and resuspended In Cytofix fixation buffer (BD Biosciences) for 15 min at room temperature (RT). Median fluorescence intensities (MFI) of Alexa Fluor 488 DARPin® protein labelled tumor cells were measured by Attune NXT (ThermoFisher) using FlowJo software for analyses and GraphPad Prism 8 for data plotting.
row,Binder,EC50
1,B4,475 nM
2,B5,27 nM
3,B6,4.9 nM
4,B7,5.2 nM

# Target: T1, biotinylated recombinant human CD70 …
# Test: SPR (ProteOn XPR36), bio.CD70 immobilized on NLC chip, DARPin as analyte
# Description: The binding affinities of purified ankyrin repeat proteins on recombinant human CD70 target were analyzed using a ProteOn XPR36 instrument (BioRad) and the measurement was performed according standard procedures known to the person skilled in the art.
# Bio.CD70 was immobilized on a NLC chip and the ankyrin repeat proteins were applied as titration with a starting concentration of 100 nM and then titrated down to 1.2 nM. The signals were double referenced against the PBST-treated control lane of L1 and A6. Analyte injection was performed for 120 s followed by a dissociation for 1500 s.
row,Binder,Kd
1,B4,27 nM
2,B8,1.1 nM
3,B9,5.7 nM
4,B10,43 nM
5,B11,5.8 nM
6,B12,16 nM
7,B13,28 nM
8,B6,0.45 nM
9,B14,3.1 nM
10,B15,3 nM

# Target: T1, biotinylated recombinant human CD70 …
# Test: SPR, bio.hCD70 on neutravidin-coated GLC chip, DARPin as analyte, 1:1 Langmuir fit
# Description: Moreover, the binding affinities of two additional purified ankyrin repeat proteins on recombinant human CD70 target were measured and analyzed with a procedure as described above for DARPin proteins #2, #3, #5 to #12. Briefly, neutravidin was precoated on a GLC chip (BioRad) to a level of 5300 RU. In a second step, bio.hCD70 was immobilized to a level of 510 RU. The binding of DARPin protein #24 and DARPin protein #25 to bio.hCD70 was measured by Injecting the DARPin® molecule in a serial dilution of […]. For all described measurements, an association of 120 s and dissociation of 1200 s using a constant flow of 100 μl/min were applied. The CD70 target was regenerated with 4M MgCl₂ applied for 30s. The signals were double referenced against interspot and the running buffer (PBST: PBS pH 7.4 containing 0.005% […]) treated control lane A6. The 1:1 Langmuir model was used for the fitting.
row,Binder,Kd
1,B5,13 nM
2,B7,0.0081 nM
